Experimental data from publication PMC3568255 (Protein expression and purification, 2012).
Values belong to the binder of their own block, whether it stands above or below them. *: point of attachment. Biotin = O=C1N[C@H]2[C@H](CS[C@H]2CCCCC(=O)*)N1

How the values were obtained:
[1] = target: the molecule itself; experiment: SEC
[2] = target: MBP-CLR ECD-H6:RAMP2 ECD-H6 complex (recombinant AM receptor ECD complex) (human, UniProt Q16602 29-144; O60895 36-140); experiment: AlphaScreen or HTRF
MBP-CLR ECD-H6:RAMP2 ECD-H6 complex (recombinant AM receptor ECD complex), sequence (Q16602 29-144, one chain of several): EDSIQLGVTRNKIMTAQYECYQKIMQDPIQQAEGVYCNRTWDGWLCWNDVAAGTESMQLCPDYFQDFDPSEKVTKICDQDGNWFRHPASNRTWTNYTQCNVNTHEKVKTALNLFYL

B1: RAMP2 ECD-H6 (RAMP2.36-140-H6), isolated extracellular domain of receptor activity modifying protein 2 (domain or fragment, human, UniProt O60895 36-140, looked up)
chain: NPHEALAQPLPTTGTPGSEGGTVKNYETAVQFCWNHYKDQMDPIEKDWCDWAMISRPYSTLRDCLEHFAELFDLGFPNPLAERIIFETHQIHFANCSLVQPTFSD
stoichiometry N [1]: 3

binding result [2]: binds
B2: B-AM(19–52)NH2[C21A] (peptide)
peptide: Biotin-GTATVQKLAHQIYQFTDKDKDNVAPRSKISPQGY-NH2
SMILES: CC[C@H](C)[C@H](NC(=O)[C@H](CCC(N)=O)NC(=O)[C@H](Cc1c[nH]cn1)NC(=O)[C@H](C)NC(=O)[C@H](CC(C)C)NC(=O)[C@H](CCCCN)NC(=O)[C@H](CCC(N)=O)NC(=O)[C@@H](NC(=O)[C@@H](NC(=O)[C@H](C)NC(=O)[C@@H](NC(=O)CNC(=O)CCCC[C@@H]1SC[C@@H]2NC(=O)N[C@@H]21)[C@@H](C)O)[C@@H](C)O)C(C)C)C(=O)N[C@@H](Cc1ccc(O)cc1)C(=O)N[C@@H](CCC(N)=O)C(=O)N[C@@H](Cc1ccccc1)C(=O)N[C@H](C(=O)N[C@@H](CC(=O)O)C(=O)N[C@@H](CCCCN)C(=O)N[C@@H](CC(=O)O)C(=O)N[C@@H](CCCCN)C(=O)N[C@@H](CC(=O)O)C(=O)N[C@@H](CC(N)=O)C(=O)N[C@H](C(=O)N[C@@H](C)C(=O)N1CCC[C@H]1C(=O)N[C@@H](CCCNC(=N)N)C(=O)N[C@@H](CO)C(=O)N[C@@H](CCCCN)C(=O)N[C@H](C(=O)N[C@@H](CO)C(=O)N1CCC[C@H]1C(=O)N[C@@H](CCC(N)=O)C(=O)NCC(=O)N[C@@H](Cc1ccc(O)cc1)C(N)=O)[C@@H](C)CC)C(C)C)[C@@H](C)O
